From patent publication US20030099647A1 (Amgen, published 2003)

Biological target: T1, CHO expressed human interferon gamma (hIFNγ) (human, UniProt P01579 24-161, glycosylated (highly glycosylated form purified))
T1 construct: mature; The form 'mature' is inferred from secretion into conditioned medium; also called hu-IFNγ; hu IFNγ
T1 sequence (looked up): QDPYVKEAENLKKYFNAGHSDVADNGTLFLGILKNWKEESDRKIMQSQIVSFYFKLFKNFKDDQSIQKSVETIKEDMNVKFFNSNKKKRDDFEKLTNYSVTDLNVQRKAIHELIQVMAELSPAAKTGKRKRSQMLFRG
Assay: BIAcore neutralization assay; inhibition of hu IFNγ binding to IFNγ-R1

- IC50: 9 nM
B1: BS-B IgG (antibody, V domains shown)
VH: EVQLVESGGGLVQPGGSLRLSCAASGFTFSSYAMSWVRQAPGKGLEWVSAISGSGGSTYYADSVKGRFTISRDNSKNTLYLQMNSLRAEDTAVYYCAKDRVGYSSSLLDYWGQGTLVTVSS
VL: NFMLTQPHSVSESPGKTVTISCTRSSGSIASYYVQWYQQRPGSSPTTVIYEDDQRPSGVPDRFSGSIDSASNSASLTISGLQTEDEADYYCQSYDRNSLVFGGGTKLTVLG
notes: The construction is described for BS-A; the others were cloned 'using similar procedures'; The VH limits 1-121 come from the germline comparison legend; also called BS-B full-length human IgG1 antibody; not shown: human IgG1 constant region (CH1, hinge, CH2 and CH3 domains) of plasmid pDSRα19:hIgG1 CH
